Series [1] concerns HeLa Kyoto. Put plainly: solubility in G1/S (NP-40 vs SDS abundance) (log2 ratio); higher = more soluble. Conditions: cell cycle stage: G1/S.
In series [2] the test system is HeLa Kyoto. As to the kind of experiment: melting temperature (median over replicates), in situ; higher = more thermally stable.
Series [3] relates to HeLa Kyoto. As to the kind of experiment: solubility change mitosis vs G1/S (difference of NP-40 vs SDS log2 ratios) (log2 ratio difference); higher = more soluble in mitosis.
For series [4], the system named is HeLa Kyoto. Put plainly: thermal stability score vs G1/S (z-score of summed log2 fold changes over temperatures); higher = more thermally stable than in G1/S.
Where [5] appears, read: cell cycle stage: early G1 (4.5 h after nocodazole release).
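For melting temperature (median over replicates), in situ in this document: HeLa Kyoto cells synchronized by double thymidine or nocodazole block, proteins quantified by TMT10plex mass spectrometry, three independent biological replicates.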
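For solubility change mitosis vs G1/S (difference of NP-40 vs SDS log2 ratios) in this document: synchronized HeLa Kyoto cells (double thymidine block for G1/S, nocodazole release for mitosis), protein amounts in NP-40 versus SDS lysates quantified by mass spectrometry, three biological replicates.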
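For solubility in G1/S (NP-40 vs SDS abundance) in this document: HeLa Kyoto cells arrested at G1/S by double thymidine block, proteins quantified by TMT10plex mass spectrometry in mild NP-40 versus SDS extracts, three biological replicates.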
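For thermal stability score vs G1/S (z-score of summed log2 fold changes over temperatures) in this document: synchronized HeLa Kyoto cells, proteins quantified by TMT10plex mass spectrometry, three biological replicates, mitosis taken 0.5 h after nocodazole release, G1/S directly after double thymidine block.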

For “MPAVSKGDGMRGLAVFISDIRNCKSKEAEIKRINKELANIRSKFKGDKALDGYSKKKYVCKLLFIFLLGHDIDFGHMEAVNLLSSNRYTEKQIGYLFISVLVNSNSELIRLINNAIKNDLASRNPTFMGLALHCIASVGSREMAEAFAGEIPKVLVAGDTMDSVKQSAALCLLRLYRTSPDLVPMGDWTSRVVHLLNDQHLGVVTAATSLITTLAQKNPEEFKTSVSLAVSRLSRIVTSASTDLQDYTYYFVPAPWLSVKLLRLLQCYPPPDPAVRGRLTECLETILNKAQEPPKSKKVQHSNAKNAVLFEAISLIIHHDSEPNLLVRACNQLGQFLQHRETNLRYLALESMCTLASSEFSHEAVKTHIETVINALKTERDVSVRQRAVDLLYAMCDRSNAPQIVAEMLSYLETADYSIREEIVLKVAILAEKYAVDYTWYVDTILNLIRIAGDYVSEEVWYRVIQIVINRDDVQGYAAKTVFEALQAPACHENLVKVGGYILGEFGNLIAGDPRSSPLIQFHLLHSKFHLCSVPTRALLLSTYIKFVNLFPEVKPTIQDVLRSDSQLRNADVELQQRAVEYLRLSTVASTDILATVLEEMPPFPERESSILAKLKKKKGPSTVTDLEDTKRDRSVDVNGGPEPAPASTSAVSTPSPSADLLGLGAAPPAPAGPPPSSGGSGLLVDVFSDSASVVAPLAPGSEDNFARFVCKNNGVLFENQLLQIGLKSEFRQNLGRMFIFYGNKTSTQFLNFTPTLICSDDLQPNLNLQTKPVDPTVEGGAQVQQVVNIECVSDFTEAPVLNIQFRYGGTFQNVSVQLPITLNKFFQPTEMASQDFFQRWKQLSNPQQEVQNIFKAKHPMDTEVTKAKIIGFGSALLEEVDPNPANFVGAGIIHTKTTQIGCLLRLEPNLQAQMYRLTLRTSKEAVSQRLCELLSAQF [AP2A2]”, in the series with HeLa Kyoto [1], the “solubility in G1/S (log2)” value is -0.202. The results for the melting temperature with HeLa Kyoto [2] (cell cycle stage: G1/S) and in the series on HeLa Kyoto [2] (cell cycle stage: mitosis) were 52.2 °C and 51.7 °C, respectively. Further, the “solubility change mitosis (log2)” value in the series with HeLa Kyoto [3] is -0.139. In addition, the thermal stability score was -0.19 in the series with HeLa Kyoto [4] (setting [5]) and -0.622 in the series with HeLa Kyoto [4] (cell cycle stage: mitosis).
For the sequence “MPCGEDWLSHPLGIVQGFFAQNGVNPDWEKKVIEYFKEKLKENNAPKWVPSLNEVPLHYLKPNSFVKFRCMIQDMFDPEFYMGVYETVNQNTKAHVLHFGKYRDVAECGPQQELDLNSPRNTTLERQTFYCVPVPGESTWVKEAYVNANQARVSPSTSYTPSRHKRSYEDDDDMDLQPNKQKDQHAGARQAGSVGGLQWCGEPKRLETEASTGQQLNSLNLSSPFDLNFPLPGEKGPACLVKVYEDWDCFKVNDILELYGILSVDPVLSILNNDERDASALLDPMECTDTAEEQRVHSPPASLVPRIHVILAQKLQHINPLLPACLNKEESKTCKFVSSFMSELSPVRAELLGFLTHALLGDSLAAEYLILHLISTVYTRRDVLPLGKFTVNLSGCPRNSTFTEHLYRIIQHLVPASFRLQMTIENMNHLKFIPHKDYTANRLVSGLLQLPSNTSLVIDETLLEQGQLDTPGVHNVTALSNLITWQKVDYDFSYHQMEFPCNINVFITSEGRSLLPADCQIHLQPQLIPPNMEEYMNSLLSAVLPSVLNKFRIYLTLLRFLEYSISDEITKAVEDDFVEMRKNDPQSITADDLHQLLVVARCLSLSAGQTTLSRERWLRAKQLESLRRTRLQQQKCVNGNEL [MCMBP]”, the “solubility in G1/S (log2)” value in the series with HeLa Kyoto [1] amounted to 0.324. Besides, the melting temperature in the series with HeLa Kyoto [2] (cell cycle stage: G1/S) worked out at 49.2 °C; in the series with HeLa Kyoto [2] (cell cycle stage: mitosis), 50.1 °C. Also, the “solubility change mitosis (log2)” value with HeLa Kyoto [3] is -0.11. For the same sequence, the thermal stability score in the series with HeLa Kyoto [4] (setting [5]) is 0.0238; in the series on HeLa Kyoto [4] (cell cycle stage: mitosis) it was 2.25.
As to “MPDYLGADQRKTKEDEKDDKPIRALDEGDIALLKTYGQSTYSRQIKQVEDDIQQLLKKINELTGIKESDTGLAPPALWDLAADKQTLQSEQPLQVARCTKIINADSEDPKYIINVKQFAKFVVDLSDQVAPTDIEEGMRVGVDRNKYQIHIPLPPKIDPTVTMMQVEEKPDVTYSDVGGCKEQIEKLREVVETPLLHPERFVNLGIEPPKGVLLFGPPGTGKTLCARAVANRTDACFIRVIGSELVQKYVGEGARMVRELFEMARTKKACLIFFDEIDAIGGARFDDGAGGDNEVQRTMLELINQLDGFDPRGNIKVLMATNRPDTLDPALMRPGRLDRKIEFSLPDLEGRTHIFKIHARSMSVERDIRFELLARLCPNSTGAEIRSVCTEAGMFAIRARRKIATEKDFLEAVNKVIKSYAKFSATPRYMTYN [PSMC2]”, the “solubility in G1/S (log2)” value in the series on HeLa Kyoto [1] was determined as 0.358. Moreover, the melting temperature came to 53.2 °C in the series with HeLa Kyoto [2] (cell cycle stage: G1/S) and 52 °C with HeLa Kyoto [2] (cell cycle stage: mitosis). Besides, in the series with HeLa Kyoto [3], the “solubility change mitosis (log2)” value is -0.143. Also, the values for the thermal stability score with HeLa Kyoto [4] (setting [5]) and with HeLa Kyoto [4] (cell cycle stage: mitosis) were 1.24 and 0.521, respectively.
Turning to “MPEEMDKPLISLHLVDSDSSLAKVPDEAPKVGILGSGDFARSLATRLVGSGFKVVVGSRNPKRTARLFPSAAQVTFQEEAVSSPEVIFVAVFREHYSSLCSLSDQLAGKILVDVSNPTEQEHLQHRESNAEYLASLFPTCTVVKAFNVISAWTLQAGPRDGNRQVPICGDQPEAKRAVSEMALAMGFMPVDMGSLASAWEVEAMPLRLLPAWKVPTLLALGLFVCFYAYNFVRDVLQPYVQESQNKFFKLPVSVVNTTLPCVAYVLLSLVYLPGVLAAALQLRRGTKYQRFPDWLDHWLQHRKQIGLLSFFCAALHALYSFCLPLRRAHRYDLVNLAVKQVLANKSHLWVEEEVWRMEIYLSLGVLALGTLSLLAVTSLPSIANSLNWREFSFVQSSLGFVALVLSTLHTLTYGWTRAFEESRYKFYLPPTFTLTLLVPCVVILAKALFLLPCISRRLARIRRGWERESTIKFTLPTDHALAEKTSHV [STEAP3]”, in the series with HeLa Kyoto [1], the “solubility in G1/S (log2)” value is -0.128. The values for the melting temperature with HeLa Kyoto [2] (cell cycle stage: G1/S) and in the series on HeLa Kyoto [2] (cell cycle stage: mitosis) were 53.3 °C and 52.4 °C, respectively. Besides, in the series on HeLa Kyoto [3], the “solubility change mitosis (log2)” value is -0.0119. Moreover, the thermal stability score is -0.269 with HeLa Kyoto [4] (setting [5]) and -2.25 with HeLa Kyoto [4] (cell cycle stage: mitosis).
Turning to “MPELAVQKVVVHPLVLLSVVDHFNRIGKVGNQKRVVGVLLGSWQKKVLDVSNSFAVPFDEDDKDDSVWFLDHDYLENMYGMFKKVNARERIVGWYHTGPKLHKNDIAINELMKRYCPNSVLVIIDVKPKDLGLPTEAYISVEEVHDDGTPTSKTFEHVTSEIGAEEAEEVGVEHLLRDIKDTTVGTLSQRITNQVHGLKGLNSKLLDIRSYLEKVATGKLPINHQIIYQLQDVFNLLPDVSLQEFVKAFYLKTNDQMVVVYLASLIRSVVALHNLINNKIANRDAEKKEGQEKEESKKDRKEDKEKDKDKEKSDVKKEEKKEKK [PSMD7]”, the “solubility in G1/S (log2)” value with HeLa Kyoto [1] came out at 0.121. The melting temperature in the series with HeLa Kyoto [2] (cell cycle stage: G1/S) stood at 53.9 °C; in the series on HeLa Kyoto [2] (cell cycle stage: mitosis) it was 51.6 °C. Also, the “solubility change mitosis (log2)” value in the series on HeLa Kyoto [3] amounted to 0.00337. The thermal stability score was -0.335 in the series with HeLa Kyoto [4] (setting [5]) and -1.17 in the series with HeLa Kyoto [4] (cell cycle stage: mitosis).

The values are drawn from the supplement of paper PMC5998384.
